In the data set the target is T1, ADAAD F507W (Bos taurus (bovine), UniProt Q9TTA5 221-940, F727W).
T1 sequence: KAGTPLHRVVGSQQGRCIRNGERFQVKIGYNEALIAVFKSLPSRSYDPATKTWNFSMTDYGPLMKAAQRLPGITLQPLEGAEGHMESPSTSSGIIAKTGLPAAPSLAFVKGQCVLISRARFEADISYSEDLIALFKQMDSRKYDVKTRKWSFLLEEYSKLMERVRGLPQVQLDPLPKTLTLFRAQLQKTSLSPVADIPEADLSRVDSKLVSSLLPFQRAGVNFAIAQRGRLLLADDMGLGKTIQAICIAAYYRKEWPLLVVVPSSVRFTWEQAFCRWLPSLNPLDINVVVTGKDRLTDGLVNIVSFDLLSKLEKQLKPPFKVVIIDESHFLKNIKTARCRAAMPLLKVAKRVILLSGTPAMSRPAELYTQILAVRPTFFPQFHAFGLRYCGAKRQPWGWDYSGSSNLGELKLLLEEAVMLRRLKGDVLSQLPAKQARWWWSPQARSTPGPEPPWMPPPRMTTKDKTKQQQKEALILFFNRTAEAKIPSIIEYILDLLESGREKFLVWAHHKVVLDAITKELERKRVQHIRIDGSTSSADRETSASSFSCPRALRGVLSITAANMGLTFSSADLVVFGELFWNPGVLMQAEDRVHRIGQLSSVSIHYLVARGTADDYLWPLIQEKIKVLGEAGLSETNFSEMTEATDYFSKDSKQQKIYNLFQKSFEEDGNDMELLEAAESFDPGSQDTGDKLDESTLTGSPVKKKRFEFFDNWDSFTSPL
Nature of the data set: intrinsic tryptophan fluorescence titration; no ATP; Fluorescence titration (ex 295 nm, em 340 nm), one-site saturation fit; buffer, salt, pH and temperature not given in the material. Wild-type ADAAD Kd values are cited from ref 24 and not listed. Particulars: protein: recombinant; tags: His (Ni-NTA, pET-14b); hairpin.

Here are results for 1 molecule from paper PMC6019379, “RecA-like domain 2 of DNA-dependent ATPase A domain, a SWI2/SNF2 protein, mediates conformational integrity and ATP hydrolysis” (Bioscience Reports, 2018).

In the case of GCGCAATTGCGCTCGACGATTTTTTAGCGCAATTGCGC (structured_DNA) [slDNA (stem-loop DNA)], the Kd (in general, the equilibrium constant for the complex coming apart) stood at 44.8 ± 9 nM.
